Measured values: patent publication US20160115202A1 (OHIO STATE INNOVATION FOUNDATION, published 2016)
Read-outs that look alike come from different tables or passages of the source. One block for each molecule: values may come before it. Bridges are numbered along the chain shown (N, C = ends). Primed or numbered codes have the meaning given here. Where no end group is shown, it is not given here. [ ]: non-standard residue; d: D form. The star is where a group is joined. trimesoyl = trimesic acid scaffold joined by three amide bonds (bicycle); trimesoyl″ = trimesic acid scaffold joined by three amide bonds; FITC = O=C1OC2(c3ccc(O)cc3Oc3cc(O)ccc32)c2ccc(NC(=S)*)cc21; Phg = N[C@H](C(=O)O)c1ccccc1; Nle = CCCC[C@H](N)C(=O)O; Pra = C#CC[C@H](N)C(=O)O; dNal = D-naphthylalanine; Dap = NC[C@H](N)C(=O)O

Columns and labels:
[1] = biological target: GST-tagged K-Ras G12V protein (Example 4) (UniProt P01116); assay: FA, binding in solution
[2] = biological target: T1, ybbR-tagged extracellular domain of human TNFα (aa 77-233) (human, UniProt P01375 77-233, biotin or Texas Red attached at the ybbR tag by Sfp where labeled TNFα was used); assay: competition ELISA: 0.5 nM HRP-TNFR1 on immobilized biotinylated TNFα
T1 construct: range 77-233; Expressed in E. coli from pET-22b(+)-ybbR; also called TNF-alpha; tumor necrosis factor-alpha
T1 sequence (P01375 other isoform, or with tags, fused parts or gaps limits assumed): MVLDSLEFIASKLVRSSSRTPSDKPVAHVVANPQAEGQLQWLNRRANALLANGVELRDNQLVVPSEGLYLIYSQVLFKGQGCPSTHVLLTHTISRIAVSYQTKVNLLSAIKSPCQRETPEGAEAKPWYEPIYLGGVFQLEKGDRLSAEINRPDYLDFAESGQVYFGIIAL
Method: A Nunc 96F Maxisorp plate was coated overnight with 100 μL of 5 mg/mL Neutravidin (in 50 mM Na₂CO₃, pH 9.0) at 4° C. The solution was removed and each well was washed with 100 μL of the blocking buffer containing 3% BSA. […] The wells were quickly washed twice with a washing buffer (0.01% Tween 20 in PBS buffer). […] After incubation at 4° C. for 1.5 h, the plate was washed twice with the washing buffer and incubated with 100 μL of 3,3′,5,5′-tetramethylbenzidine (Sigma) for 30 min. The reaction was quenched by the addition of 100 μL of 1 M phosphoric acid. The absorbance at 450 nm was measured and plotted against the peptide concentration and the IC₅₀ value was obtained by curve fitting.

[3] = biological target: T1, ybbR-tagged extracellular domain of …; assay: FA, resynthesized FITC-labeled peptide titrated with TNFα
[4] = biological target: GST-tagged K-Ras G12V protein (Example 4) (UniProt P01116); assay: FA, binding in solution; remark: listed apart in the source
[5] = biological target: T1, ybbR-tagged extracellular domain of …; assay: FA competition; competitor FITC-labeled Necrostatin C2 (100 nM), TNFα 1600 nM
[6] = biological target: T1, ybbR-tagged extracellular domain of …; assay: FA competition; competitor FITC-labeled Necrostatin C1 (100 nM), TNFα 1600 nM

B1: Necrostatin C1 (label not stated) (peptide)
peptide: [Phg]Y[dA]KY[dF]G[dK]H[Dap]
modifications: linker (positions not given here) via trimesic acid (trimesoyl); not fully specified (bridges)
notes: As used in the TNFα-TNFR1 ELISA and the MTT assays; also called Nercostatin C1
IC50 [2]: 3.1 µM

Molecule: [Phg]Y[dA]KY[dF]G[dK]H[Dap]K(FITC) (linker (positions not given here) via trimesoyl; not fully specified (bridges)) [FITC-labeled Necrostatin C1 (resynthesized)]
Kd [3]: 0.45 µM

B3: Necrostatin C2 (unlabeled) (peptide)
peptide: A[dF]W[dT]QK[Nle][dL]AH[Dap]
modifications: linker (positions not given here) via trimesic acid (trimesoyl); not fully specified (bridges)
notes: also called unlabeled Necrostatin C2
IC50 [5]: ~2 µM
IC50 [6]: ~4 µM

Continued, values first:

Kd [1]: 6 µM
Molecule: peptide 13, bicyclo(Ala-Orn-Phg-Arg-d-Asn-Pra-Ile-d-Phe-K-FNalR4-Dap)-K

Kd [4]: 2 µM
B2: peptide 12, bicyclo(d-Ala-Gln-Phg-Arg-d-Asn-Pra-Ile-Asp-K-FNalR4-Dap)-K (peptide)
peptide: [dA]Q[Phg]R[dN][Pra]IDKF[dNal]RRRR[Dap]K
modifications: linker N-1-9-16 via trimesoyl″; not fully specified (residue 6); also: dye label on C-terminal Lys not given here
